Measurements from patent publication US20100041597A1, “PEPTIDES TARGETED TO PROTEIN KINASE C ISOFORMS AND USES THEREOF” (priority 2005, published 2010).

Tests used:
[1] = biological target: PKC-βII (Homo sapiens, UniProt P05771); assay: ELISA-based competitive binding assay with purified PKC isoform; set-up: key to Affinity for PKC isoform βII: —: no detectable affinity; Low to very low affinity at 10X or 20X or both PRE concentrations in at least one cell line in the cell extract assay; Low affinity in purified isoform assay.; Moderate affinity at 10X or 20X or both PRE concentrations in at least one cell line in the cell extract assay.; High affinity at 10X or 20X or both PRE concentrations in at least one cell line in the cell extract assay; High affinity in purified isoform assay; conditions: for inhibition at 50 µM / inhibition at 100 µM / inhibition at 200 µM / calculated binding capacity (100-% n) after subtraction of the DMSO apparent binding capacity: purified PKC-βII; for inhibition at 50 µM / inhibition at 100 µM / inhibition at 200 µM: read-out: calculated binding capacity (100-% n) after subtraction of the DMSO apparent binding capacity; for Affinity for PKC isoform βII: Purified isoform, Table 20
PKC-βII, sequence (P05771 1-673 isoform P05771-2): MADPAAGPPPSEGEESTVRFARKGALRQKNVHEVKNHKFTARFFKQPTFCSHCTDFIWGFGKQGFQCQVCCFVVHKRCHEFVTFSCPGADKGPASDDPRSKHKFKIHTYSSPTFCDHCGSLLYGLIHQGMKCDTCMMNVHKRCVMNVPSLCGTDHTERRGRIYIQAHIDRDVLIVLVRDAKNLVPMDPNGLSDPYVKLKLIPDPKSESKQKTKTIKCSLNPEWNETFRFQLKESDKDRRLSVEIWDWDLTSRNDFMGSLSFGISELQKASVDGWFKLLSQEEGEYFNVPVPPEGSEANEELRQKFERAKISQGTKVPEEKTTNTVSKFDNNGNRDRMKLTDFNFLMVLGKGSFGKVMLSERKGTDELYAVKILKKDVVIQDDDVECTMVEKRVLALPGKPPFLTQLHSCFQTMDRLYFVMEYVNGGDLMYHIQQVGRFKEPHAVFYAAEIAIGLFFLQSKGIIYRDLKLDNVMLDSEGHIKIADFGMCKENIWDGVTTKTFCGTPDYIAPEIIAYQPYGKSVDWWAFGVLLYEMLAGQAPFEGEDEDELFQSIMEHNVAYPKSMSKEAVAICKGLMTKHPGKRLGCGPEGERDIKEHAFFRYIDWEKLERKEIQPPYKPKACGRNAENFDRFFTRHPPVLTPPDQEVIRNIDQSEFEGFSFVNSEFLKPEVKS
Method: (§1) Peptides PRE 1, 2, 3, 4, 5, 6, 7, 8, 9, 10, 11, 12 and 13 (see Table 3) were tested for their ability to interfere with binding of PKC isoform-specific antibodies to their target PKC isoforms using a competitive binding assay and purified PKC isoforms.
(§2) Procedure: Competitive binding was assessed using a 96 well plate ELISA-based assay as described below.
(§3) Greiner 96 well ELISA plates were coated with the appropriate PKC isoform diluted in PBSN (PBS with Calcium/Magnesium+0.05% Sodium azide w/w). 50 μL/well at 250 ng/mL was used. Control wells contained PBSN only. Plates were incubated overnight at 4° C.
(§4) The plates were washed 3 times with 200 μL of dH2O per well, then 100 μL of blocking solution was added per well and the plate incubated for 1 h at 37° C. The washing steps with dH2O were repeated and 50 μL of the appropriate PRE solution (PRE stock solution [20 mM in DMSO] diluted in PBSN) was added and the plate incubated for 1 h at room temperature.
(§5) After incubation, 5 μL of 1.1:400 anti-PKC (isoform specific antibody) was added per well (to provide a final concentration of 1:4000). For PKC-epsilon, 1.1:800 dilution was used and for PKC-zeta a 1.1:100 dilution was used due to high and low binding affinity, respectively. The plates were then incubated 1 h at room temperature, followed by washing with dH2O as described above.
(§6) 50 μL of 1:1000 dilution of Alkaline Phosphatase (AP) conjugated antibody (anti-rabbit for all except zeta, which was anti-goat) was then added and the plate incubated for 1 h at room temperature. Washing with dH2O was then repeated. Finally, 100 μL of pNPP solution in pNPP buffer (2 mM MgCl2, 100 mM Sodium bicarbonate in water, pH 9.8) was added to all wells and incubated for 8 minutes for α, βI, βII ε, and ζ, or for 15-20 mins for […] (until sufficient coloration is observed). The reaction was stopped by addition of Stop solution (2N NaOH) and the absorbance at 405 nm was read on a Galaxy Plate reader.
(§7) Controls were PKC without PRE; blank controls, and controls containing the final concentrations of DMSO used for solubilizing the PREs. The non-specific binding capacity related to DMSO was also measured.
(§8) The antibodies used were as follows: anti-PKC α (Cat. No. SC-208); anti-PKC βI (Cat. No. SC-209); anti-PKC βII (Cat. No. SC-210); anti-PKC δ (Cat. No. SC-213); anti-PKC ε (Cat. No. SC-214); anti-PKC ζ (Cat. No. SC-216-G) (all from Santa Cruz Biotechnology, Inc.). The AP-conjugated antibodies were obtained from Jackson Immuno Research Laboratories (West Grove, Pa.).
(§9) Calculations: The OD values measured at 405 nm represent the free PKC coated per well.
(§10) OD405 PKC alone−Blank OD405 of each sample=OD405 coated isoform
(§11) (OD405 of sample X/OD405 coated isoform)×100=% n that represents the percentage of X binding compared to control.
(§12) 100-% n measures the relative binding capacity of X towards the tested isoform.
(§13) The apparent binding capacity of the DMSO samples was then subtracted from X binding capacity.
(§14) All measurements were made in triplicate and the values in the table represent the averaged calculated binding capacity values after subtraction of the DMSO apparent binding capacity (averaged from 12 values, respectively 10.80, 11.20 and 16.40 corresponding to the concentrations of DMSO used to dilute the […] at 200, 100 and 50 μM respectively). The results allow for quantitative comparison of the binding capacity of each PRE towards an individual isoform within each table, but not among isoforms due to differences in sensitivity of the specific antibodies toward the secondary antibody. This applies particularly to PKC-delta. As noted above, the colour development duration was increased 2-3 times and, as a result, the OD405 measurements may be overestimated for this isoform.

[2] = biological target: T1, PKC-ζ (Homo sapiens, UniProt Q05513); assay: as above; set-up: key to Affinity for PKC isoform ζ: —: no detectable affinity; Low to very low affinity at 10X or 20X or both PRE concentrations in at least one cell line in the cell extract assay; Low affinity in purified isoform assay.; Moderate affinity at 10X or 20X or both PRE concentrations in at least one cell line in the cell extract assay.; High affinity at 10X or 20X or both PRE concentrations in at least one cell line in the cell extract assay; High affinity in purified isoform assay; conditions: for inhibition at 50 µM / inhibition at 100 µM / inhibition at 200 µM / calculated binding capacity (100-% n) after subtraction of the DMSO apparent binding capacity: purified PKC-ζ; for inhibition at 50 µM / inhibition at 100 µM / inhibition at 200 µM: read-out: calculated binding capacity (100-% n) after subtraction of the DMSO apparent binding capacity; for Affinity for PKC isoform ζ: Purified isoform, Table 20
T1 sequence (Q05513 1-592): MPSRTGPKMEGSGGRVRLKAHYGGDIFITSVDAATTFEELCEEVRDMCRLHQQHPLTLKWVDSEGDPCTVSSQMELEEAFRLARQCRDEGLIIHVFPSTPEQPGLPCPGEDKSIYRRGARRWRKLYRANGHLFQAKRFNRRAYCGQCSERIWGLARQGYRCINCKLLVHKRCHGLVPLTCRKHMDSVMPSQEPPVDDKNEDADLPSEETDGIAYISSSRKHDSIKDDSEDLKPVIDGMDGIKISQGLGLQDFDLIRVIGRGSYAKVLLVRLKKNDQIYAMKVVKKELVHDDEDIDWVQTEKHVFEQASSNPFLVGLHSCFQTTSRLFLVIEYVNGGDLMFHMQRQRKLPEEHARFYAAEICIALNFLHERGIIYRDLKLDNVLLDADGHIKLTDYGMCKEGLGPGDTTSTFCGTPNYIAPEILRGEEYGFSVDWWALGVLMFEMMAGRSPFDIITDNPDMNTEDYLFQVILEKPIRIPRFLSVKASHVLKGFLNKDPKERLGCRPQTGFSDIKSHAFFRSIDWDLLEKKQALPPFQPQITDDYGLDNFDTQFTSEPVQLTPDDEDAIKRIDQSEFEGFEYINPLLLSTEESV
Method: as §1, §2, §3, §4, §5, §6, §7, §8, §9, §10, §11, §12, §13, §14

Substance	Affinity for PKC isoform βII [1]	Affinity for PKC isoform ζ [2]	calculated binding capacity (100-% n) after subtraction of the DMSO apparent binding capacity ([1]; PRE 50 μM)	also measured
Ac-AKGIQEVKGGDAQNLIGISI-NH2 [PRE 3]	—	H		inhibition at 50 µM ([1]; PRE 50 μM): 0%; inhibition at 100 µM ([1]; PRE 100 μM): 0%; inhibition at 200 µM ([1]; PRE 200 μM): 3.72%; inhibition at 50 µM ([2]; PRE 50 μM): 14%; inhibition at 100 µM ([2]; PRE 100 μM): 23.9%; inhibition at 200 µM ([2]; PRE 200 μM): 29.1%; targeting of PKC-ζ ([2]; purified isoform, Tables 14-19): targeted by PRE 3 only
Ac-AKGIQEVKGGKDAQNLIGISI-NH2 [PRE 5]	—	—		inhibition at 50 µM ([1]; PRE 50 μM): 0%; inhibition at 100 µM ([1]; PRE 100 μM): 0%; inhibition at 200 µM ([1]; PRE 200 μM): 0%; inhibition at 50 µM ([2]; PRE 50 μM): 0%; inhibition at 100 µM ([2]; PRE 100 μM): 0%; inhibition at 200 µM ([2]; PRE 200 μM): 0%
Ac-ISIGILNQADK-NH2 [PRE 10]	L	—		
Ac-ISIGILQNADK-NH2 [PRE 7]	—	—	5.42	calculated binding capacity (100-% n) after subtraction of the DMSO apparent binding capacity ([1]; PRE 100 μM): 11.07; calculated binding capacity (100-% n) after subtraction of the DMSO apparent binding capacity ([1]; PRE 200 μM): 2.59
Ac-KDANQLIGISI-NH2 [PRE 6]	—	—		
Ac-KDAQNLI-NH2 [PRE 12]	—	—	4.55	calculated binding capacity (100-% n) after subtraction of the DMSO apparent binding capacity ([2]; PRE 50 μM): 4.20; calculated binding capacity (100-% n) after subtraction of the DMSO apparent binding capacity ([2]; PRE 100 μM): 8.77; calculated binding capacity (100-% n) after subtraction of the DMSO apparent binding capacity ([2]; PRE 200 μM): 0.33
Ac-KDAQNLIGISI-NH2 [PRE 4, Ac-KDAQNLIGISI-NH2]	L	—		inhibition at 50 µM ([1]; PRE 50 μM): 2.69%; inhibition at 100 µM ([1]; PRE 100 μM): 13.5%; inhibition at 200 µM ([1]; PRE 200 μM): 1.18%; inhibition at 50 µM ([2]; PRE 50 μM): 0%; inhibition at 100 µM ([2]; PRE 100 μM): 0%; inhibition at 200 µM ([2]; PRE 200 μM): 5.85%
Ac-RDAQNLI-NH2 [PRE 13]	—	—		
Ac-RDAQNLIGISI-NH2 [PRE 11]	—	—	7.14	calculated binding capacity (100-% n) after subtraction of the DMSO apparent binding capacity ([1]; PRE 100 μM): 11.04; calculated binding capacity (100-% n) after subtraction of the DMSO apparent binding capacity ([1]; PRE 200 μM): 6.40
Ac-isigilgnadk-NH2 [PRE 9]	H	—	8.14	calculated binding capacity (100-% n) after subtraction of the DMSO apparent binding capacity ([1]; PRE 100 μM): 0.3; targeting of PKC-βII ([1]; purified isoform, Tables 14-19): targeted most strongly
ILEDKGGDAQNLIGISI [PRE 8]	—	—	1.11	
RRKKGGKDFVVKR [PRE 1]	—	—		calculated binding capacity (100-% n) after subtraction of the DMSO apparent binding capacity ([2]; PRE 50 μM): 4.11
